Assay in all cases: crystal structure
In test [1] the target is mVSG397 N-terminal domain (T. brucei brucei, strain Lister 427).
Test [2] addresses mVSG531 N-terminal domain (T. brucei brucei, strain Lister 427).
Test [3] deals with mVSG1954 N-terminal domain (T. brucei brucei, strain Lister 427).

With “mVSG397 N-terminal domain (domain or fragment)”, the stoichiometry N in test [1] was 2.

Take “mVSG531 N-terminal domain (domain or fragment)”: in test [2], the stoichiometry N stood at 2. Substance “mVSG1954 N-terminal domain (domain or fragment)” yielded a stoichiometry N in test [3] of 3.

Broadly, the stoichiometry N is the number of molecules, sites or subunits per partner or assembly.

The values are drawn from publication doi:10.1101/2022.09.28.508705.
